Reference: patent US20090280138A1 (OXFORD BIOMEDICA UK, published 2009)

B1: 5T4 9-mer peptide 127 (peptide)
peptide: SFRNLTHLE
B2: 5T4 9-mer peptide 120 (peptide)
peptide: LDLSNNSLV
B3: 5T4 9-mer peptide 128 (peptide)
peptide: RNLTHLESL
B4: 5T4 9-mer peptide 135 (peptide)
peptide: ALKVLHNGT
B5: 5T4 9-mer peptide 134 (peptide)
peptide: DNALKVLHN
B6: 5T4 9-mer peptide 130 (peptide)
peptide: HLESLHLED
notes: also called HLESLHLED
B7: 5T4 9-mer peptide 137 (peptide)
peptide: LHNGTLAEL
B8: 5T4 9-mer peptide 122 (peptide)
peptide: NNSLVSLTY
B9: 5T4 9-mer peptide 129 (peptide)
peptide: LTHLESLHL
B10: 5T4 9-mer peptide 123 (peptide)
peptide: SLVSLTYVS
B11: 5T4 9-mer peptide 131 (peptide)
peptide: ESLHLEDNA
B12: 5T4 9-mer peptide 136 (peptide)
peptide: KVLHNGTLA
B13: 5T4 9-mer peptide 124 (peptide)
peptide: VSLTYVSFR
B14: 5T4 9-mer peptide 133 (peptide)
peptide: LEDNALKVL
B15: 5T4 9-mer peptide 132 (peptide)
peptide: LHLEDNALK
B16: 5T4 9-mer peptide 121 (peptide)
peptide: LSNNSLVSL
B17: 5T4 9-mer peptide 138 (peptide)
peptide: NGTLAELQG
B18: 5T4 9-mer peptide 109 LASNHFLYL (peptide)
peptide: LASNHFLYL
B19: 5T4 9-mer peptide 114 RDVLAQLPS (peptide)
peptide: RDVLAQLPS
B20: 5T4 9-mer peptide 113 LPRDVLAQL (peptide)
peptide: LPRDVLAQL
B21: 5T4 9-mer peptide 118 SLRHLDLSN (peptide)
peptide: SLRHLDLSN

Biological target: T1, MHC class I allele A*0201 monomer (human, biotinylated, bound to streptavidin-coated plate)
T1 construct: also called A2; HLA-A2
Assay: iTopia, multiparametric iScore
Method: (§1) The 9 mers were tested for Peptide Binding, Off Rate and Affinity using iTopia Epitope Discovery System in accordance with the manufacturer's instructions. Briefly, 96 well microtitre plates coated with MHC molecules representing different MHC alleles are used to identify candidate peptides. […] Determinations are performed in duplicate using an ELISA plate reader and included allele specific positive controls.
(§2) Finally, multiparametric analysis is performed on the results from these assays and an iScore is generated. The iScore represents a measure of the overall quality of peptide-MHC binding, enabling candidate peptides to be ranked in order of binding quality and allowing rational prioritisation of peptides for functional cellular follow-up studies.

First: B1
Second: B2
The iScore of the first is lower: 0 for the first, 0.156 for the second.

Compared with B3, B4 is higher in iScore: 0.072 for the first, 0.104 for the second.

B5 and B6 are the same in iScore: 0 for the first, 0 for the second.

Compared with B7, B8 is lower in iScore: 0.187 for the first, 0 for the second.

Going from B9 to B10, the iScore rises from 0.143 to 0.206.

First: B11
Second: B12
The iScore of the first is lower: 0 for the first, 0.15 for the second.

Going from B13 to B14, the iScore rises from 0 to 0.122.

First: B15
Second: B16
The iScore of the first is lower: 0 for the first, 0.116 for the second.

B17 gave an iScore of 0.

Biological target: T2, MHC class I allele A*0101 monomer (human, biotinylated, bound to streptavidin-coated plate)
T2 construct: placeholder peptide and b2M removed, then reconstituted with test peptide and fresh b2M; also called A1; HLA-A1
Assay: iTopia, multiparametric iScore
Method: as §1, §2

B1 and B2 are the same in iScore: 0 for the first, 0 for the second.

B3 and B4 are the same in iScore: 0 for the first, 0 for the second.

B5 and B6 are the same in iScore: 0 for the first, 0 for the second.

B7 and B8 are the same in iScore: 0 for the first, 0 for the second.

B9 and B10 are the same in iScore: 0 for the first, 0 for the second.

B11 and B12 are the same in iScore: 0 for the first, 0 for the second.

B13 and B14 are the same in iScore: 0 for the first, 0 for the second.

B15 and B16 are the same in iScore: 0 for the first, 0 for the second.

Work on B17 yielded an iScore of 0.

Biological target: T3, MHC class I allele B*0702 monomer (human, biotinylated, bound to streptavidin-coated plate)
T3 construct: also called B7; HLA-B7
Assay: iTopia, multiparametric iScore
Method: as §1, §2

B1 and B2 are the same in iScore: 0 for the first, 0 for the second.

B3 and B4 are the same in iScore: 0 for the first, 0 for the second.

B5 and B6 are the same in iScore: 0 for the first, 0 for the second.

First: B7
Second: B8
The iScore of the first is higher: 0.026 for the first, 0 for the second.

B9 and B10 are the same in iScore: 0 for the first, 0 for the second.

B11 and B12 are the same in iScore: 0 for the first, 0 for the second.

B13 and B14 are the same in iScore: 0 for the first, 0 for the second.

First: B15
Second: B16
The iScore of the first is lower: 0 for the first, 0.012 for the second.

Work on B17 yielded an iScore of 0.

Biological target: T4, MHC class I allele A*0301 monomer (human, biotinylated, bound to streptavidin-coated plate)
T4 construct: also called A3; HLA-A3
Assay: iTopia, multiparametric iScore
Method: as §1, §2

B1 and B2 are the same in iScore: 0 for the first, 0 for the second.

B3 and B4 are the same in iScore: 0 for the first, 0 for the second.

B5 and B6 are the same in iScore: 0 for the first, 0 for the second.

B7 and B8 are the same in iScore: 0 for the first, 0 for the second.

B9 and B10 are the same in iScore: 0 for the first, 0 for the second.

B11 and B12 are the same in iScore: 0 for the first, 0 for the second.

Compared with B13, B14 is lower in iScore: 0.025 for the first, 0 for the second.

B15 and B16 are the same in iScore: 0 for the first, 0 for the second.

B17 gave an iScore of 0.

Biological target: T5, MHC class I molecule A*0201 (biotin (bound to streptavidin-coated plate))
T5 construct: also called A2; HLA-A2
Assay: iTopia iScore
Method: as §1, §2

Compared with B18, B19 is lower in iScore: 0.337 for the first, 0 for the second.

Going from B20 to B21, the iScore rises from 0 to 0.03.

Biological target: T6, MHC class I molecule B*0702 (biotin (bound to streptavidin-coated plate))
T6 construct: also called B7; HLA-B7
Assay: iTopia iScore
Method: as §1, §2

B18 and B19 are the same in iScore: 0 for the first, 0 for the second.

First: B20
Second: B21
The iScore of the first is higher: 0.305 for the first, 0 for the second.

Biological target: T7, MHC class I molecule A*0101 (biotin (bound to streptavidin-coated plate))
T7 construct: also called A1; HLA-A1
Assay: iTopia iScore
Method: as §1, §2

Compared with B18, B19 is lower in iScore: 0.12 for the first, 0 for the second.

B20 and B21 are the same in iScore: 0 for the first, 0 for the second.

Biological target: T8, MHC class I molecule A*0301 (biotin (bound to streptavidin-coated plate))
T8 construct: also called A3; HLA-A3
Assay: iTopia iScore
Method: as §1, §2

Compared with B18, B19 is lower in iScore: 0.224 for the first, 0 for the second.

B20 and B21 are the same in iScore: 0 for the first, 0 for the second.
